The values that follow come from US11370846B2, “Compositions and methods to regulate Renalase in the treatment of cancer” (Yale University, priority 2014, dated 2022).

Assay [1] deals with renalase-1 and renalase-2. As to the kind of experiment: Renalase isoform specificity of anti-renalase antibodies. It counts as binding, human. As to conditions: renalase-1 vs renalase-2. The procedure: Peptides were used as immunogens. The peptides generated ranged from 9 to 21 amino acids and corresponded to regions of the renalase-1 and renalase-2 proteins. […] Each peptide was conjugated to the adjuvant KLH via the cysteine and used to immunize 6 rabbits. Antiserum collected from each animal was screened for anti-renalase antibody titer by ELISA assay using both the relevant peptide (BSA-conjugate) or full length renalase-1 or 2. The antisera were also tested for their ability to detect endogenous renalase in tissue lysates by western blot. Using these screening criteria the animals producing antibodies with the preferred characteristics were selected. In some examples and for some peptides, several animals produced antibodies with the required specificity. […] Polyclonal antibodies raised against all of the peptides were generated by purification of total IgG from terminal bleeds by protein G chromatography followed by further purification on peptide affinity chromatography. Further and using standard procedures, lymphocytes from the spleens of selected animals were fused to myeloma cells for hybridoma generation. The hybridoma supernatants were screened for binding to both the peptides against which they were raised and secondarily screened against whole renalase protein. Selected hybridomas were sub-cloned and expanded for antibody purification. The monoclonal antibodies were purified from conditioned hybridoma culture supernatant by protein A affinity chromatography.

The test system of assay [2] is BxPC3 xenografted tumors. As to the kind of experiment: BxPC3 pancreatic xenograft in athymic nude mice. It counts as in vivo, mouse. The procedure:
Immunohistochemistry was performed as described previously (Guo et al., 2012 Cancer Science. 103(8):1474-80). Briefly tumor tissues were formalin-fixed, paraffin-embedded and cut into 5-μm sections on glass slides. The slides were de-paraffinized and hydrated, followed by antigen retrieval in a pressure cooker containing 10 mM sodium citrate, pH6 buffer. The sections were blocked in 3% hydrogen peroxide for 30 min and 2.5% normal horse serum in PBS/0.1% Tween20 for 1 h followed by incubation with primary antibody and isotype control IgG overnight at 4° C. […]
Xenograft tumors were established by subcutaneous injection of BxPC3 cells (2×10^6 in 100 μl of PBS, pH 7.6). […] Tumor size was measured with digital calipers and volume was calculated according to the formula (length×width)×π/2. […] These animals received no further treatments, and tumor size and volume were measured for up to 30 days.
At the end of the study, the mice were sacrificed, the tumors were excised and immediately snap-frozen in liquid nitrogen and stored at −80° C. […] Sections were examined by light microscopy and the apoptosis index was determined by counting >1000 cells in 5 randomly selected high-power fields (×200 magnification).

For assay [3], the system named is Panc1 cells. As to the kind of experiment: FACS apoptosis and cell cycle analysis of Panc1 cells. The class given is cell-based, human. The note with it: 30 μg/ml. The procedure:
FIG. 26A through FIG. 26E are a series of images and charts showing that inhibition of RNLS signaling induces apoptosis and cell cycle arrest. […] FIG. 26B is a chart depicting FACS analysis of Panc1 cells in culture treated with either m28-RNLS (30 μg/ml) or 100 μM etoposide (positive control) for 4 days; n=3, * indicates p<0.05. FIG. 26C is an image showing Panc1 cells treated with polyclonal ab31291 or with goat IgG as a negative control, and cells lysates probed for p38 and Bax activation by western blot. […] FIG. 26E is a chart showing the effect of m28-RNLS on cell cycle of Panc1 cells determined by FACS analysis; green curve: no treatment, purple curve: rabbit IgG, red curve: m28-RNLS 30 μg/ml.
For cell cycle analysis, cultured cells were dissociated using 10 mM EDTA, fixed with ice-cold 70% ethanol, digested with RNAse A, and stained with propidium iodide. Propidium staining was detected using a BD FACSCalibur flow cytometer (BD Biosciences, San Jose, Calif., USA), and analyzed using CellQuest software.
Apoptosis was detected and quantified as previously done (Guo et al., 2012 Cancer Science. 103(8):1474-80). […] At least 20,000 events were collected on a BD FACSCalibur flow cytometer (BD Biosciences, San Jose, Calif., USA) and analyzed using CellQuest software.

For assay [4], the system named is PDACC. Briefly: PDACC growth with anti-RNLS antibodies, WST-1. The note with it: 72 hrs. It counts as cell-based, human. The procedure: FIG. 25A through FIG. 25E are a series of charts and images showing that inhibition of RNLS signaling is cytotoxic to cancer cells in vitro and in vivo. FIG. 25A is a chart showing relative cell viability following transient transfection of Panc1 cells using a RNLS-specific siRNA, or a non-specific control siRNA, and cell viability assayed 96 h later using the WST-1 reagent; n=6, ** indicates p<0.001. FIG. 25B is a chart showing relative cell viability when cells were treated with indicated antibodies for 72 hrs and cell viability determined using WST-1; m28-RNLS and m37-RNLS: monoclonal antibodies raised against RNLS peptide RP220, ab31291: Abcam polyclonal antibody raised against a partial sequence of RP-220; n=6, * indicates p<0.005. […] FIG. 25D is a chart showing tumor volume increase after athymic nude mice received subcutaneous injection of Panc1 cells transduced with RNLS shRNA (sh-RNLS) or control (sh-Control); tumor volume measured every […] for up to 30 days, n=6 each; * indicates p<0.05. FIG. 25E is chart showing tumor volume increase after nude mice were xenografted with BxPC3; tumor volume measured prior to treatment every 3-4 days with 2 mg/kg of either rabbit IgG as a negative control or with m28-RNLS, n=10, * indicates p<0.05.

B1: 1D-28-4: rabbit anti-renalase monoclonal raised against peptide RP-220 (antigen 1D); heavy chain SEQ ID NO:9, light chain SEQ ID NO:10 (antibody)
heavy: METGLRWLLLVAVLKGVQCQSVEESGGRLVTPGTPLTLTCTVSGFSLSSFAVGWVRQAPGKGLEYIGIISSVGITRYASWAAGRFTISKTSTTVDLKITSPTTEDTATYFCARYGYSGDVNRLDLWGQGTLVTVSSGQPKAPSVFPLAPCCGDTPSSTVTLGCLVKGYLPEPVTVTWNSGTLTNGVRTFPSVRQSSGLYSLSSVVSVTSSSQPVTCNVAHPATNTKVDKTVAPSTCSKPTCPPPELLGGPSVFIFPPKPKDTLMISRTPEVTCVVVDVSQDDPEVQFTWYINNEQVRTARPPLREQQFNSTIRVVSTLPIAHQDWLRGKEFKCKVHNKALPAPIEKTISKARGQPLEPKVYTMGPPREELSSRSVSLTCMINGFYPSDISVEWEKNGKAEDNYKTTPAVLDSDGSYFLYSKLSVPTSEWQRGDVFTCSVMHEALHNHYTQKSISRSPGK
light: MDTRAPTQLLGLLLLWLPGATFAQVLTQTASPVSAAVGGTVTINCQASQSVYDNNNLAWYQQKPGQPPKQLIYGASTLASGVSSRFKGSGSGTQFTLTISGVQCDDAATYYCLGEFSCSSADCFAFGGGTEVVVKGDPVAPTVLIFPPSADLVATGTVTIVCVANKYFPDVTVTWEVDGTTQTTGIENSKTPQNSADCTYNLSSTLTLTSTQYNSHKEYTCKVTQGTTSVVQSFNRGDC
modifications: oryctolagus cuniculus
Regarding B1, the renalase isoform specificity result in assay [1] was “recognize renalase-1 and renalase-2”. Besides, the p21 positive cells in assay [2] (IHC) is 178.1±11.4 positive cells/high power field. The “decrease in expression of Ki67 vs IgG” value in assay [2] (mouse, in vivo) was 2.5 fold. In addition, the “cell cycle of Panc1 cells” value in assay [3] is on record as “pre-G2 cell cycle arrest”. Besides, the “apoptosis of Panc1 cells” value in assay [3] (4 days) is on record as “caused apoptosis”. Also, the PDACC growth result in assay [4] was “inhibitory effects”.
